Measurements from patent US20240076391A1 (ONCURIOUS, published 2024).
Positions count from the first letter of the chain named. Names may count otherwise. Blank lines part the entries; values can stand above or below the binder they belong to.

Key:
human CCR8 [1] = biological target: T1, human CCR8 (human, UniProt P51685 1-355); assay: flow cytometry competition with FLAG3-His6 tagged parental VHH-56 on hCCR8 cells
T1 construct: also called hCCR8
Excerpt: (§1) Multiple His6 tagged VHH variants were thus generated and evaluated by flow cytometry f for their ability to compete for binding to hCCR8 with their FLAG3-His6 tagged parental counterparts. […] Variants that retained binding capacity where selected for further biophysical and chemical stability analysis.

human CCR8 [2] = biological target: T1, human CCR8; assay: flow cytometry, human CCR8 stably expressed in HEK293 cells
[3] = biological target: T2, N-terminal deletion human CCR8 (delta 18-3XHA) (human, UniProt P51685 20-355); assay: flow cytometry; an extracellular loop binder is defined in paragraph 224 as binding on hCCR8 cells and on human CCR8 (delta18-3XHA)
T2 construct: N-terminally deleted construct with 3XHA, expressed on transfected HEK293 cells
Excerpt: VHH clones resulting from the human CCR8 immunization and selection campaign were screened by means of flow cytometry for binding to human CCR8 (SEQ ID NO: 79) on stably transfected HEK293 cells or to HEK293 cells previously transfected with plasmid DNA encoding three different versions of human-mouse chimera CCR8 in which one of the extracellular loops (ECLs) was replaced with the mouse CCR8 counterpart, as well as to an N-terminal deletion human CCR8 (SEQ ID NO: 80, delta 18-3XHA herein after), in comparison to mock-transfected control cells. Comparison of the binding (median fluorescent intensity) signal of a given VHH clone across the seven cell lines enabled classification of said clone as an N-terminal human CCR8 binder (i.e. binding on hCCR8 cells, but not on human CCR8 (delta18-3XHA) or control cells) or as an extracellular loop hCCR8 binder (i.e. binding on hCCR8 cells and on human CCR8 (delta18-3XHA), but not on control cells). Binding comparison across the cell lines expressing human-mouse chimera CCR8 allowed to further classify extracellular hCCR8 binders as either ECL1, ECL2 or ECL3 binders.

human CCR8 [4] = biological target: T1, human CCR8; assay: flow cytometry competition with FLAG3-His6 tagged parental VHH-65 on hCCR8 cells
Excerpt: as §1

human CCR8 [5] = biological target: T1, human CCR8; assay: competition with VHH-65 for CCR8 binding
human CCR8 [6] = biological target: T1, human CCR8; assay: flow cytometry competition with FLAG3-His6 tagged parental VHH-74 on hCCR8 cells
Excerpt: as §1

T1 sequence (P51685 whole entry): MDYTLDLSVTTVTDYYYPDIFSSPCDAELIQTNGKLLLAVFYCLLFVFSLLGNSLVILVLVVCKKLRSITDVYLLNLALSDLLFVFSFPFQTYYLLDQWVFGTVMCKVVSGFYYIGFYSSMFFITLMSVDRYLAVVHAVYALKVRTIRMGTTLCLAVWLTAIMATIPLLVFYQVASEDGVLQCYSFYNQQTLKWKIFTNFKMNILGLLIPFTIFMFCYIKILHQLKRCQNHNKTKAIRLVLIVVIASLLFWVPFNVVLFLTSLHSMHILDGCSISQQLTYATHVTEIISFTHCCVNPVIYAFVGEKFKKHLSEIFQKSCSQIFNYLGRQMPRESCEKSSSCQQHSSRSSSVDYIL
T2 sequence (P51685 other isoform, or with tags, fused parts or gaps mutant): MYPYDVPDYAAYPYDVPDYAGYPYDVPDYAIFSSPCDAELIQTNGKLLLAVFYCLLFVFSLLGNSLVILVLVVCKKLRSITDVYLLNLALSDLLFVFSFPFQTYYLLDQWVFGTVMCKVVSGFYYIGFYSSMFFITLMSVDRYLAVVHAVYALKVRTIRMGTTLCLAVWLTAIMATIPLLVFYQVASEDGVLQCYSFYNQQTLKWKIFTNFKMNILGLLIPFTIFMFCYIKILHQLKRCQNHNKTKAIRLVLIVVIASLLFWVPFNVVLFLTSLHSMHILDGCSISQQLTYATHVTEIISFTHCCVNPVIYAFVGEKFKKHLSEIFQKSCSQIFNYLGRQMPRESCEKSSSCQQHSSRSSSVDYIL

binding result (human CCR8 [1]): binds
B1: VHH-114 (VHH)
VHH: DVQLVESGGGLVQPGGSLRLSCAASRSIYNVLAMGWYRQAPGKERELVAVVWSSGNTNYADSVKGRFTISRDNAKNTVYLQMNSLRPEDTAVYYCYSKSLIGTSRYEIWGQGTLVTVSS
notes: 'V691' is printed, probably V69I; also called VHH-56 E1D, M32L, V691; not shown: C-terminal His6 tag (no FLAG3)

binding result (human CCR8 [2]): binds
binding result [3]: binds
B2: VHH-56 (VHH)
VHH: B1 VHH with D1E, L32M, I69V
notes: Monovalent VHH purified from E. coli periplasm by IMAC; PelB signal peptide is removed on export; not shown: C-terminal FLAG3 and His6 tags

binding result (human CCR8 [1]): binds
B3: VHH-115 (VHH)
VHH: B1 VHH with L32R
notes: 'V691' is printed, probably V69I; also called VHH-56 E1D, M32R, V691; not shown: C-terminal His6 tag (no FLAG3)

binding result (human CCR8 [2]): binds
binding result [3]: binds
B4: VHH-65 (VHH)
VHH: EVQLVESGGGLVQPGGSLRLSCAASGRAFSSYNMGWFRQAPGKERDFVATISSSGTNYANSVKGRFTISRDNAKNTVYLQMNSLRPEDTAVYYCNAKTVTRTGGVITGSRIEYDYWGQGTLVTVSS
notes: Monovalent VHH purified from E. coli periplasm by IMAC; not shown: C-terminal FLAG3 and His6 tags

binding result (human CCR8 [4]): binds
B5: VHH-89 (VHH)
VHH: B4 VHH with E1D, D46E, N60D
notes: also called VHH-65 E1D, D46E, N60D; not shown: C-terminal His6 tag (no FLAG3)

binding result (human CCR8 [5]): binds
B6: VHH-74 (VHH)
VHH: EVQLVESGGGLVQPGGSLRLSCAASGSTFSIKSIGWYRQAPGKQRELVADITRGAGINYADSVKGRFTISRDNTKNTMYLQMNSLRPEDTAVYYCNVKTIKRTGGIMTGSKIEYDYWGQGTLVTVSS
notes: as for B4

binding result (human CCR8 [6]): binds
B7: VHH-125 (VHH)
VHH: B6 VHH with E1D, T74A, M78V, M107L
notes: also called VHH-74 E1D, T74A, M78V, M107L; not shown: C-terminal His6 tag (no FLAG3)
